Experimental data reported in article PMC6497308.

Assay: Western blot densitometry of ATP1B2 in HEK293
Conditions: glycan lost; control: normal ATP1B2

Row | Protein | expression_or_secretion
1 | ATP1B2 (Na/K-ATPase β2 subunit): N96Q (protein) parent chain: MVIQKEKKSCGQVVEEWKEFVWNPRTHQFMGRTGTSWAFILLFYLVFYGFLTAMFTLTMWVMLQTVSDHTPKYQDRLATPGLMIRPKTENLDVIVNVSDTESWDQHVQKLNKFLEPYNDSIQAQKNDVCRPGRYYEQPDNGVLNYPKRACQFNRTQLGNCSGIGDSTHYGYSTGQPCVFIKMNRVINFYAGANQSMNVTCAGKRDEDAENLGNFVMFPANGNIDLMYFPYYGKKFHVNYTQPLVAVKFLNVTPNVEVNVECRINAANIATDDERDKFAGRVAFKLRINKT | no change
2 | ATP1B2 (Na/K-ATPase β2 subunit): N193Q (protein) parent chain: MVIQKEKKSCGQVVEEWKEFVWNPRTHQFMGRTGTSWAFILLFYLVFYGFLTAMFTLTMWVMLQTVSDHTPKYQDRLATPGLMIRPKTENLDVIVNVSDTESWDQHVQKLNKFLEPYNDSIQAQKNDVCRPGRYYEQPDNGVLNYPKRACQFNRTQLGNCSGIGDSTHYGYSTGQPCVFIKMNRVINFYAGANQSMNVTCAGKRDEDAENLGNFVMFPANGNIDLMYFPYYGKKFHVNYTQPLVAVKFLNVTPNVEVNVECRINAANIATDDERDKFAGRVAFKLRINKT | no change
3 | ATP1B2 (Na/K-ATPase β2 subunit): N153Q (protein) parent chain: MVIQKEKKSCGQVVEEWKEFVWNPRTHQFMGRTGTSWAFILLFYLVFYGFLTAMFTLTMWVMLQTVSDHTPKYQDRLATPGLMIRPKTENLDVIVNVSDTESWDQHVQKLNKFLEPYNDSIQAQKNDVCRPGRYYEQPDNGVLNYPKRACQFNRTQLGNCSGIGDSTHYGYSTGQPCVFIKMNRVINFYAGANQSMNVTCAGKRDEDAENLGNFVMFPANGNIDLMYFPYYGKKFHVNYTQPLVAVKFLNVTPNVEVNVECRINAANIATDDERDKFAGRVAFKLRINKT | no change
4 | ATP1B2 (Na/K-ATPase β2 subunit): N250Q (protein) parent chain: MVIQKEKKSCGQVVEEWKEFVWNPRTHQFMGRTGTSWAFILLFYLVFYGFLTAMFTLTMWVMLQTVSDHTPKYQDRLATPGLMIRPKTENLDVIVNVSDTESWDQHVQKLNKFLEPYNDSIQAQKNDVCRPGRYYEQPDNGVLNYPKRACQFNRTQLGNCSGIGDSTHYGYSTGQPCVFIKMNRVINFYAGANQSMNVTCAGKRDEDAENLGNFVMFPANGNIDLMYFPYYGKKFHVNYTQPLVAVKFLNVTPNVEVNVECRINAANIATDDERDKFAGRVAFKLRINKT | no change
5 | ATP1B2 (Na/K-ATPase β2 subunit): N118Q (protein) parent chain: MVIQKEKKSCGQVVEEWKEFVWNPRTHQFMGRTGTSWAFILLFYLVFYGFLTAMFTLTMWVMLQTVSDHTPKYQDRLATPGLMIRPKTENLDVIVNVSDTESWDQHVQKLNKFLEPYNDSIQAQKNDVCRPGRYYEQPDNGVLNYPKRACQFNRTQLGNCSGIGDSTHYGYSTGQPCVFIKMNRVINFYAGANQSMNVTCAGKRDEDAENLGNFVMFPANGNIDLMYFPYYGKKFHVNYTQPLVAVKFLNVTPNVEVNVECRINAANIATDDERDKFAGRVAFKLRINKT | no change
6 | ATP1B2 (Na/K-ATPase β2 subunit): N197Q (protein) parent chain: MVIQKEKKSCGQVVEEWKEFVWNPRTHQFMGRTGTSWAFILLFYLVFYGFLTAMFTLTMWVMLQTVSDHTPKYQDRLATPGLMIRPKTENLDVIVNVSDTESWDQHVQKLNKFLEPYNDSIQAQKNDVCRPGRYYEQPDNGVLNYPKRACQFNRTQLGNCSGIGDSTHYGYSTGQPCVFIKMNRVINFYAGANQSMNVTCAGKRDEDAENLGNFVMFPANGNIDLMYFPYYGKKFHVNYTQPLVAVKFLNVTPNVEVNVECRINAANIATDDERDKFAGRVAFKLRINKT | no change
7 | ATP1B2 (Na/K-ATPase β2 subunit): N159Q (protein) parent chain: MVIQKEKKSCGQVVEEWKEFVWNPRTHQFMGRTGTSWAFILLFYLVFYGFLTAMFTLTMWVMLQTVSDHTPKYQDRLATPGLMIRPKTENLDVIVNVSDTESWDQHVQKLNKFLEPYNDSIQAQKNDVCRPGRYYEQPDNGVLNYPKRACQFNRTQLGNCSGIGDSTHYGYSTGQPCVFIKMNRVINFYAGANQSMNVTCAGKRDEDAENLGNFVMFPANGNIDLMYFPYYGKKFHVNYTQPLVAVKFLNVTPNVEVNVECRINAANIATDDERDKFAGRVAFKLRINKT | no change
8 | ATP1B2 (Na/K-ATPase β2 subunit): N238Q (protein) parent chain: MVIQKEKKSCGQVVEEWKEFVWNPRTHQFMGRTGTSWAFILLFYLVFYGFLTAMFTLTMWVMLQTVSDHTPKYQDRLATPGLMIRPKTENLDVIVNVSDTESWDQHVQKLNKFLEPYNDSIQAQKNDVCRPGRYYEQPDNGVLNYPKRACQFNRTQLGNCSGIGDSTHYGYSTGQPCVFIKMNRVINFYAGANQSMNVTCAGKRDEDAENLGNFVMFPANGNIDLMYFPYYGKKFHVNYTQPLVAVKFLNVTPNVEVNVECRINAANIATDDERDKFAGRVAFKLRINKT | no change
